Experimental data taken from US20240343799A1.

How the values were obtained:
huCD79b-N (human) [1] = biological target: huCD79b-N (human) (UniProt P40259); experiment: BLI (ForteBio), antibody loaded on sensor, antigen in solution
huCD79b-N (human) [2] = biological target: huCD79b-N (human) (UniProt P40259); experiment: BLI (ForteBio)

Binder | Kd (huCD79b-N (human) [1]) | Kd (huCD79b-N (human) [2])
hz38D9B3.11 (antibody, V domains shown) VH: QVQLVQSGSELKKPGASVKVSCKASGYTFTDYSMHWVRQAPGQGLEWMGWINTETGEPSYADDFKGRFVFSLDTSVSTAYLQISSLKAEDTAVYYCYYGPYWGQGTLVTVSS VL: EIVLTQSPATLSLSPGERATLSCKASQSVDHDVDSYMDWYQQKPGQAPRLLIYSASNLESGIPARFSGSGSGTDFTLTISSLEPEDFAVYYCQQINEYPYTFGGGTKVEIK | 0.275 nM | 
A7v14b (antibody, V domains shown) VH: EVQLVQSGAEVKKPGASVKVSCKASGYTFTTYYMNWVRQAPGQGLEWIGMIDPSDSETHYNQKFQGRATLTVDTSTSTAYLELSSLRSEDTAVYYCSRSLAFWGQGTLVTVSS VL: DIVMTQTPLSLPVTPGQPASISCKSSQSLLDSDGKTYLNWLLQKPGQSPQSLIYLVSKLDSGVPDRFSGSGSGTDFTLKISRVEAEDVGVYYCWQGTHFPQTFGQGTKVEIK | 8.56 nM | 
hz11G10.9.p1 (antibody, V domains shown) VH: QVQLVQSGAEVKKPGASVKVSCKASGYTFTDYWVNWVRQAPGQGLEWMGMIDPSDSETHYNQMFNDRVTMTVDTSTSTVYMELSSLRSEDTAVYYCTRSNYYWGQGTLVTVSS VL: DIVMTQTPLSLSVTPGQPASISCKSSQSLLDSEGKTYLNWLLQKPGQSPQSLIYLVSKLDSGVPDRFSGSGSGTDFTLKISRVEAEDVGVYYCWQGTHFPLTFGGGTKVEIK | 3.4 nM | 
hz34F1.14 (antibody, V domains shown) VH: QVQLVQSGAEVKKPGASVKVSCKASGYSFTTYWMNWVRQAPGQGLTWMGMIDPSDSETHYNHLFKDRVTMTVDKSTSTAYMELSSLRSEDTAVYYCTRAIGYWGQGTLVTVSS VL: DVVMTQSPLSLPVTLGQPASISCKSSLSLLDSEGKTYLNWFQQRPGQSPRPLISLVSKLDSGVPDRFSGSGSGTDFTLKISRVEAEDVGVYYCWQGTHFPLTFGGGTKVEIK | 8.07 nM | 
polmab (antibody, human IgG1, kappa, V domains shown) VH: EVQLVESGGGLVQPGGSLRLSCAASGYTFSSYWIEWVRQAPGKGLEWIGEILPGGGDTNYNEIFKGRATFSADTSKNTAYLQMNSLRAEDTAVYYCTRRVPIRLDYWGQGTLVTVSS VL: DIQLTQSPSSLSASVGDRVTITCKASQSVDYEGDSFLNWYQQKPGKAPKLLIYAASNLESGVPSRFSGSGSGTDFTLTISSLQPEDFATYYCQQSNEDPLTFGQGTKVEIKR | 3.22 nM | 3.1 nM
